{"source": "patent US20260176636", "about": "“APTAMER-DIRECT INHIBITOR CONJUGATES AND METHODS OF USING THE SAME” (Duke University, published 2026)", "binders": {"B1": {"name": "11F7t-20A-DAB (ssRNA)", "RNA": "AAAAAAAAAAAAAAAAAAAAGAGAGCCCCAGCGAGAUAAUACUUGGCCCCGCUCUU", "modifications": "5' dabigatran-C6; 2'-OMe A(20) linker; C and U of aptamer 2'-F (inferred); 3' T"}, "B2": {"name": "11F7t-20A-APX (ssRNA)", "RNA": "B1 RNA", "modifications": "5' apixaban-C6; 2'-OMe A(20) linker; C and U of aptamer 2'-F (inferred); 3' T"}}, "key": {"[1]": {"target": "T1, thrombin (human alpha thrombin) (human, UniProt P00734;P00734 P00734:328-363,P00734:364-622)", "experiment": "inhibition; ±0.04; max inhibition 55%; KEA,I 1.8"}, "[2]": {"target": "T2, factor Xa (human, UniProt P00742;P00742 P00742:41-179,P00742:235-488)", "T2 sequence (P00742 41-179, chain 1 of 2)": "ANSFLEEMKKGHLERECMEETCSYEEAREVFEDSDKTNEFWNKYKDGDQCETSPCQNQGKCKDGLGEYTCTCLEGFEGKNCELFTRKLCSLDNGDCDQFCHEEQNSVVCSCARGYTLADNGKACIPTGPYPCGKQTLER", "T2 sequence (P00742 235-488, chain 2 of 2)": "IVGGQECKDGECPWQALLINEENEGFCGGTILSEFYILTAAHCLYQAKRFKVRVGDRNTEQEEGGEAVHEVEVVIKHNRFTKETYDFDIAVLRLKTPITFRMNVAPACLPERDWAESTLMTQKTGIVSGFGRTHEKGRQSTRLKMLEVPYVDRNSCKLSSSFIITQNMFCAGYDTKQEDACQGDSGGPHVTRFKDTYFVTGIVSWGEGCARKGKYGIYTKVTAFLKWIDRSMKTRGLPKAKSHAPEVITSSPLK", "experiment": "inhibition; fluorogenic substrate; free DAB IC50 >500 nM", "settings": "tags: Haematologic Technologies Inc"}, "[3]": {"target": "T2, factor Xa", "experiment": "inhibition; fluorogenic substrate; free APX IC50 5.5 nM", "settings": "tags: Haematologic Technologies Inc"}, "[4]": {"target": "T1, thrombin (human alpha thrombin)", "experiment": "BLI; no binding observed"}, "[5]": {"target": "T1, thrombin (human alpha thrombin)", "experiment": "inhibition; fluorogenic peptidyl substrate; >99% max inhibition; 2 mM CaCl2, pH 7.5, 28 C"}, "[6]": {"target": "T1, thrombin (human alpha thrombin)", "experiment": "BLI; printed as 54 μM but kon 3.9e7 M-1s-1 and koff 2.1e-3 s-1 give 54 pM; biotinylated aptamer immobilised; 20 mM HEPES, 150 mM NaCl, 2 mM CaCl2, pH 7.5"}, "[7]": {"target": "T1, thrombin (human alpha thrombin)", "experiment": "BLI; kon down 15-fold, koff up 8-fold; absolute KD only in figure"}}, "data": [{"binder": "AGTCCGTGGTAGGGCAGGTTGGGGTGACT (ssDNA, 5' dabigatran-C6)", "note": "[HD22-0A-DAB]", "values": [{"measurement": "IC50", "setting": "[1]", "value": 550, "unit": "pM"}]}, {"binder": "B1", "values": [{"measurement": "IC50", "setting": "[2]", "value": 180, "unit": "pM"}]}, {"binder": "B2", "values": [{"measurement": "IC50", "setting": "[3]", "value": 170, "unit": "pM"}]}, {"binder": "AAAAAAAAGTCCGTAATAAAGCAGGTTAAAATGACT (ssDNA, 5' NH2-C6; 5' A(7) dA linker)", "note": "[HD23-7A-NH2]", "values": [{"measurement": "binding result", "setting": "[4]", "value": "no binding"}]}, {"binder": "AAAAAAAAGTCCGTGGTAGGGCAGGTTGGGGTGACT (ssDNA, 5' dabigatran-C6 amide; 5' A(7) dA linker)", "note": "[HD22-7A-DAB]", "values": [{"measurement": "IC50", "setting": "[5]", "value": 100, "unit": "pM"}, {"measurement": "Kd", "setting": "[6]", "value": 54, "unit": "pM"}]}, {"binder": "AAAAAAAAGTCCGTGGTAGGGCAGGTTGGGGTGACT (ssDNA, 5' NH2-C6; 5' A(7) dA linker)", "note": "[HD22-7A-NH2]", "values": [{"measurement": "Kd", "setting": "[7]", "value": "> 100 fold weaker than HD22-7A-DAB"}]}]}
